Molecular target: T1, Recombinant human TRB3 (tribbles homolog 3) (human, UniProt Q96RU7 1-358)
T1 construct: pseudokinase tribbles homolog 3 (TRB3), human, recombinant; as I recall, the catalogue suffix H09B stands for a His and GST tagged protein made in baculovirus-infected insect cells (surmise); also called TRB3 protein; human TRB3 protein; source: bought: Sino Biological (10731-H09B)
T1 sequence (looked up): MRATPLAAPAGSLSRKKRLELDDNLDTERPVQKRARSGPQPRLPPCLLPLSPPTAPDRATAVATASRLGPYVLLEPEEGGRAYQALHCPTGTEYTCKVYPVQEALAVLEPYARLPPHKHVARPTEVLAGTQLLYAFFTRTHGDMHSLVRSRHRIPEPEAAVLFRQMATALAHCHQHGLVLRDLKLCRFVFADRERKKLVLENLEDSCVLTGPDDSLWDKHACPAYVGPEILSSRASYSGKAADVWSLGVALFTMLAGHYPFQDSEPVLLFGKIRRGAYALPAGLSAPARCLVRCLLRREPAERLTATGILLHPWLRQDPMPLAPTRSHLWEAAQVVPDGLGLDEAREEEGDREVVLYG
Assay: MST; Monolith NT.115; Ac-GFFY-A2 or A2 against human TRB3 protein or BSA (negative control); which partner was labelled is not told
Settings: both partners purified

B1: A2 peptide (TRB3-binding peptide fragment derived from p62) (peptide)
peptide: GGWLTRLLQTK
notes: also called non-self-assembling peptide A2; source: synthetic peptide (SPPS, purified by HPLC)
In the case of B1, the Kd is reported as roughly 3.21 µM.
